Source: patent US20170190781A1 (Kyowa Kirin, published 2017)
Substitutions are numbered along the chain they refer to. Names may count otherwise.

T1: death domain-deleted human DR3 (hDR3ΔDD) on CHO-K1 cells (human, UniProt Q93038 25-345)
T1 construct: also called CHO/DR3; human DR3-expressing CHO cells
T1 sequence: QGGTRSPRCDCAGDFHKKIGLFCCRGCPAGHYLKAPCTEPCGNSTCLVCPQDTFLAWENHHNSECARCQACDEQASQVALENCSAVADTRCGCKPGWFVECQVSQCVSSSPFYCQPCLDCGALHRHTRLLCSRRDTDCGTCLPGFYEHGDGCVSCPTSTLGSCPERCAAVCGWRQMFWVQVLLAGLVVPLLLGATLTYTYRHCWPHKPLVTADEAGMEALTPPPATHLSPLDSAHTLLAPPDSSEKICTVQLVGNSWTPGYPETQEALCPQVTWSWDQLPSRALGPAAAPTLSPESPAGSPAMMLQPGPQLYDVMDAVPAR

B1: anti-DR3 monoclonal antibody 142A2 Fab fragment (Fab, V domains shown)
VH: QVQLQQSGPGLVKPSQTLSLTCAISGDSVSGYSAAWNWIRQSPSRGLEWLGRTYYRSKWYNDYAVSVKSRITINPDTSKNQFSLQLNSVTPEDTAVYYCARDYYGSESYYNGGYYYYGMDVWGQGTTVTVSS
VL: AIQLTQSPSSLSASVGDRVTITCRASPGISSALAWYQQKPGKAPKLLMYDASSLESGVPSRFSGSGSGTDFTLTISSLQPEDFATYYCQQFNDYPLTFGGGTKVEIK
notes: Fab made with the Pierce Fab Preparation Kit from antibody 142A2; also called parental 142A2
B2: 142A2-L54Q Fab (Fab, V domains shown)
VH: B1 VH
VL: B1 VL with L54Q
notes: Only the variable domains are written; also called A2-Q
B3: 142A2-A51E Fab (Fab, V domains shown)
VH: B1 VH
VL: B1 VL with A51E
notes: Only the variable domains are written; also called A2-E
B4: 142A2-G112R/A51E Fab (Fab, V domains shown)
VH: B1 VH with G112R
VL: B1 VL with A51E
notes: Only the variable domains are written; also called A2-ER
B5: 142A2-G112R/L54Q Fab (Fab, V domains shown)
VH: B1 VH with G112R
VL: B1 VL with L54Q
notes: Only the variable domains are written
B6: 142A2-G112R Fab (Fab, V domains shown)
VH: B1 VH with G112R
VL: B1 VL
notes: as for B5
B7: 142A2-G112R/A51E/L54Q Fab (Fab, V domains shown)
VH: B1 VH with G112R
VL: B1 VL with A51E, L54Q
notes: Only the variable domains are written; also called A2-EQR; 142A2-EQR
B8: 142A2-A51E/L54Q Fab (Fab, V domains shown)
VH: B1 VH
VL: B1 VL with A51E, L54Q
notes: Only the variable domains are written; also called A2-EQ
B9: anti-DR3 monoclonal antibody 142S38B Fab fragment (Fab, V domains shown)
VH: EVQLLESGGGLVQPGGSLRLSCAASGFTVSRYAMSWVRQAPGKGLEWVSAISDSGGRTYYADSVMGRFTISRDTSKNTLYLQMNSLRAEDTAVYFCAKEFGDYLDYWGQGTLVTVSS
VL: EIVLTQSPATLSLSPGERATLSCRASQSVSSYLAWYQQKPGQAPRLLIYDASNRATGIPARFSGSGSGTDFTLTISSLEPEDFAVYYCQQRSNWWTFGQGTKVEIK
notes: Fab made with the Pierce Fab Preparation Kit from antibody 142S38B; Human kappa light chain; Only the variable domains are written
B10: anti-DR3 monoclonal antibody 142S38B (hybridoma supernatant) (antibody, V domains shown)
VH: B9 VH
VL: B9 VL
notes: Human antibody from a KM mouse hybridoma, detected with anti-human IgG-PE; Kappa light chain

Columns and labels:
[1] = target: T2, recombinant human DR3-human IgG1-Fc (soluble human DR3(EC)-hG1Fc) (human); assay: SPR, Fab on immobilised DR3-Fc, same as Example 5; n = 6
T2 construct: also called huDR3-huFc; hDR3(EC)-hG1Fc
Experimental: (§1) Fab antibody fragments of the above mentioned antibodies were obtained following the Pierce Fab Preparation Kit (Thermo Scientific Pierce No. 44985). All of the following manipulations were carried out using a Biacore® 3000 (manufactured by GE Healthcare Bio-Sciences). Recombinant huDR3-huFc protein was immobilized on a CM5 sensor chip (manufactured by GE Healthcare Bio-Sciences) by an amine coupling chemistry.
(§2) In particular, the kinetic assay was carried out by immobilizing on the chip approximately 2000 resonance unit (RU) of recombinant protein, in order to achieve a medium protein immobilization level. Thereafter, the anti-DR3 antibody Fab fragments, diluted from 12 nM concentration in five steps, were allowed to run at a flow rate of 30 μL/min onto the chip for 120 seconds. The dissociation time was 300 seconds and the binding curves were measured at 25° C.
(§3) Regeneration was performed with glycine-HCl, pH 1.5, 60 seconds. The raw data were double referenced by subtraction of the signals from a reference flow cell without captured ligand and a buffer blank. The sensorgram corresponding to each concentration was obtained. The analysis was carried out using a 1:1 Langmuir fit model, using the analysis software attached to the apparatus, Biacore® 3000 Evaluation software (manufactured by Biacore), thereby calculating an association rate constant ka [1/Ms] and a dissociation rate constant kd [1/s] for the recombinant huDR3-huFc protein.

[2] = target: T2, recombinant human DR3-human IgG1-Fc …; assay: SPR (Biacore 3000), huDR3-huFc on CM5, Fab as analyte; average KD, n = 2
Experimental: as §1, §2
(§4) Regeneration was performed with glycine-HCl, pH 1.5, 60 seconds. The raw data were double referenced by subtraction of the signals from a reference flow cell without captured ligand and a buffer blank. The sensorgram corresponding to each concentration was obtained. […]

[3] = target: T2, recombinant human DR3-human IgG1-Fc …; assay: SPR (Biacore 3000), huDR3-huFc amine-coupled on CM5, Fab 12 to 0.375 nM, 1:1 Langmuir fit, 25 C; run 1
Experimental: as §1, §2, §3

[4] = target: T2, recombinant human DR3-human IgG1-Fc …; assay: SPR (Biacore 3000), huDR3-huFc amine-coupled on CM5, Fab 12 to 0.375 nM, 1:1 Langmuir fit, 25 C; run 2
Experimental: as §1, §2, §3

[5] = target: T2, recombinant human DR3-human IgG1-Fc …; assay: SPR, Fab on immobilised DR3-Fc
Experimental: as §1, §2, §3
Target sequence in this assay (chain, as listed by the source limits assumed): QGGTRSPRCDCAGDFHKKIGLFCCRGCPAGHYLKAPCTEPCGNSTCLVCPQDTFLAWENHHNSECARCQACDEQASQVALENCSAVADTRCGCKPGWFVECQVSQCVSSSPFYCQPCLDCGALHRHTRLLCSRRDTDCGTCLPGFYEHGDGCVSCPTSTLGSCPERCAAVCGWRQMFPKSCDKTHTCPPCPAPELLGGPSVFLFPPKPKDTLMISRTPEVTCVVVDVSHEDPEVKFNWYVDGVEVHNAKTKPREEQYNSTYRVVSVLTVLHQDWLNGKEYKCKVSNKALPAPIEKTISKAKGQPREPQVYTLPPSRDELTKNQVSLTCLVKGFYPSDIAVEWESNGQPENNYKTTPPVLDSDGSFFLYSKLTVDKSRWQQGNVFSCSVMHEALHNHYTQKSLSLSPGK

[6] = target: T2, recombinant human DR3-human IgG1-Fc …; assay: SPR, Fab on immobilised DR3-Fc, same as Example 5; n = 3
Experimental: as §1, §2, §3

[7] = target: T2, recombinant human DR3-human IgG1-Fc …; assay: SPR, Fab on immobilised DR3-Fc, same as Example 5; n = 23
Experimental: as §1, §2, §4

[8] = target: T1, death domain-deleted human DR3 …; assay: flow cytometry of hybridoma supernatant on human DR3-expressing CHO cells, anti-human IgG-PE
Experimental: Supernatants of multiwell plates were screened by flow cytometric binding to human DR3-expressing CHO cells (hereinafter described as CHO/DR3, in case). Cells were incubated at 10,000/well in a 96-well round-bottom assay plate for 15 minutes at 4° C. with a neat supernatant of hybridoma. Cells were pelleted via centrifugation, and washed with 200 μL PBS/0.5% fetal calf serum. […] Cells were washed as described above, and resuspended in 200 μL PBS/0.5% fetal calf serum; >5000 events acquired on an LSR Fortessa flow cytometer (Beckton Dickinson). Results were analyzed using FlowJo (Treestar Inc.).

| Binder | Kd [1] | fold increase of binding affinity against parental 142A2 [5] | Kd [6] | other results |
| --- | --- | --- | --- | --- |
| B1 | 3.99 nM | – | – | Kd [2]: 2.65 nM; Kd [3]: 3.79 nM; Kd [4]: 1.5 nM |
| B2 | – | ~1.2 fold | 3.04 nM | – |
| B3 | 2.2 nM | ~1.8 fold | – | – |
| B4 | 1.96 nM | ~2 fold | – | – |
| B5 | – | – | 2.37 nM | – |
| B6 | – | – | 3.19 nM | – |
| B7 | – | ~2.2 fold | 1.78 nM | – |
| B8 | – | ~1.9 fold | – | Kd [7]: 2.13 nM |
| B9 | – | – | 0.13 nM | Kd [2]: 0.194 nM; Kd [3]: 0.225 nM; koff [3]: 5.37e-05 s⁻¹; kon [3]: 239000 M⁻¹ s⁻¹; Kd [4]: 0.162 nM; koff [4]: 5.46e-05 s⁻¹; kon [4]: 337000 M⁻¹ s⁻¹ |
| B10 | – | – | – | binding result [8]: binds |
